Test results: paper PMC10864275, “Binding kinetics drive G protein subtype selectivity at the β1-adrenergic receptor” (Nature Communications, 2024)
Where “and” joins values, the source holds several entries; their conditions need not be identical. Equal values may be shown once.

Key:
[1] = biological target: avi-β1AR-E (turkey β1-adrenergic receptor, minimally thermostabilised construct with E130 restored, N-terminal biotinylated avi-tag) (turkey) (UniProt P07700); experiment: BLI; biotinylated avi-tagged receptor in LMNG immobilised on streptavidin biosensors; 500 μM xamoterol (partial agonist); mini-Gs in solution at 4 μM (column 4); 20 mM TrisHCl pH 8.0, 150 mM NaCl, 15 mM MgCl2, 0.02% LMNG, 0.1% BSA; 25 °C; 1:1 monophasic local partial fit; each row one of n = …
Chain of avi-β1AR-E (turkey β1-adrenergic receptor, minimally thermostabilised construct with E130 restored, N-terminal biotinylated avi-tag) (turkey) (P07700 other isoform, or with tags, fused parts or gaps with the stated changes): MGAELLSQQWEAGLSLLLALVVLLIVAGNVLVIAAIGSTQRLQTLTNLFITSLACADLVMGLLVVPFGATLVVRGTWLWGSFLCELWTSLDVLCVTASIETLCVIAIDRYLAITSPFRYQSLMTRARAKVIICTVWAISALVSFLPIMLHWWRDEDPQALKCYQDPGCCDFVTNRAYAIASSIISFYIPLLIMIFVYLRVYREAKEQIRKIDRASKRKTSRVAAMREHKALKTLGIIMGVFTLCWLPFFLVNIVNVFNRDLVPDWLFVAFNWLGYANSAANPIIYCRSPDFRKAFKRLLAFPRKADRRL

[2] = biological target: avi-β1AR-W (turkey β1-adrenergic receptor β1AR-MetΔ5, thermostabilised with E130W, N-terminal biotinylated avi-tag) (turkey) (UniProt P07700); experiment: as above
Chain of avi-β1AR-W (turkey β1-adrenergic receptor β1AR-MetΔ5, thermostabilised with E130W, N-terminal biotinylated avi-tag) (turkey) (P07700 other isoform, or with tags, fused parts or gaps with the stated changes): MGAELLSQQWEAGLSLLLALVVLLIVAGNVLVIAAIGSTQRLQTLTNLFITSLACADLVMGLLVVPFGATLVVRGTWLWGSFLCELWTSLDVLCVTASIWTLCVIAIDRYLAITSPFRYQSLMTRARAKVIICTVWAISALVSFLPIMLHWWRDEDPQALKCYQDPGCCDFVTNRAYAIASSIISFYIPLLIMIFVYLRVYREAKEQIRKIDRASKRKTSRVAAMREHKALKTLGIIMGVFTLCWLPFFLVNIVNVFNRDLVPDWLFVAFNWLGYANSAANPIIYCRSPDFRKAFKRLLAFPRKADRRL

[3] = biological target: avi-β1AR-E (turkey β1-adrenergic receptor, minimally thermostabilised construct with E130 restored, N-terminal biotinylated avi-tag) (turkey) (UniProt P07700); experiment: BLI; biotinylated avi-tagged receptor in LMNG immobilised on streptavidin biosensors; 500 μM isoprenaline; mini-G in solution at a single concentration (0.125-4 μM); 20 mM TrisHCl pH 8.0, 150 mM NaCl, 15 mM MgCl2, 0.02% LMNG, 0.1% BSA; 25 °C; 1:1 monophasic local partial fit; one of n = 3 tips
[4] = biological target: avi-β1AR-W (turkey β1-adrenergic receptor β1AR-MetΔ5, thermostabilised with E130W, N-terminal biotinylated avi-tag) (turkey) (UniProt P07700); experiment: as above
[5] = biological target: avi-β1AR-E (turkey β1-adrenergic receptor, minimally thermostabilised construct with E130 restored, N-terminal biotinylated avi-tag) (turkey) (UniProt P07700); experiment: BLI; biotinylated avi-tagged receptor in LMNG immobilised on streptavidin biosensors; 500 μM salbutamol (partial agonist); mini-Gs in solution at a single concentration (1 or 2 μM); 20 mM TrisHCl pH 8.0, 150 mM NaCl, 15 mM MgCl2, 0.02% LMNG, 0.1% BSA; 25 °C; 1:1 monophasic local partial fit; one of n = 3 tips
[6] = biological target: avi-β1AR-W (turkey β1-adrenergic receptor β1AR-MetΔ5, thermostabilised with E130W, N-terminal biotinylated avi-tag) (turkey) (UniProt P07700); experiment: as above

Kd [1]: 2370 nM and 2320 nM and 2400 nM
Kd [2]: 3060 nM and 2950 nM and 2900 nM
Kd [3]: 42.9 nM and 46.3 nM and 51.2 nM
Kd [4]: 173 nM and 170 nM and 141 nM
Kd [5]: 977 nM and 962 nM and 946 nM
Kd [6]: 1440 nM
Substance: mini-Gs 393 C96A (domain or fragment)
